# Read-outs that look alike come from different tables or passages of the source.
# Experiments:
# Test in all cases: fluorescence anisotropy
# hnRNPK deltaKH3 = hnRNPK deltaKH3 (human/mouse (100% identical), UniProt P61978 1-337)
# hnRNPK full-length [1] = target: T1, hnRNPK full-length (human/mouse (100% identical), UniProt P61978 1-463)
# hnRNPK KH3 = hnRNPK KH3 (human/mouse (100% identical), UniProt P61978 379-463)
# hnRNPK KH1 = hnRNPK KH1 (human/mouse (100% identical), UniProt P61978 37-120)
# hnRNPK full-length [2] = target: T1, hnRNPK full-length; remark: listed apart in the source
# hnRNPK full-length [3] = target: T1, hnRNPK full-length; remark: listed apart in the source
# hnRNPK R9 to S9 = hnRNPK R9 to S9 (human/mouse (100% identical), UniProt P61978 1-463, R247S;R256S;R258S;R268S;R287S;R296S;R299S;R316S;R326S)
Binder,Kd (hnRNPK deltaKH3),Kd (hnRNPK full-length [1]),further results
GGCUCCCCCGACCUCUGUGCUCCCCUCCCCCGACCUCUGUGC (ssRNA) [MYU lncRNA],120 ± 10 nM,70 ± 7 nM,
GGUCCCCCGCCUCAUUCGCCCCUCUGCUCCC (ssRNA) [CDK6 3'UTR],710 ± 50 nM,450 ± 60 nM,Kd (hnRNPK KH3): 12900 ± 700 nM
GCAGCCCCAGCCCCAGCCCCUACCCCUGCCCCUGCCCCUGC (structured_RNA) [B motif RNA WT],140 ± 30 nM,61 ± 6 nM,binding result (hnRNPK KH1): no binding
"GCAGCCCCAGCCCCAGCCCCUACCCCUGCCCCUGUUUCUGC (structured_RNA) [(1,2,3,4,5)]",,,binding result (hnRNPK full-length [2]): binds
"GCAGUUUCAGCCCCAGCCCCUAUUUCUGUUUCUGUUUCUGC (structured_RNA) [(2,3)]",,710 nM,
"GCAGCCCCAGCCCCAGCCCCUAUUUCUGUUUCUGUUUCUGC (structured_RNA) [(1,2,3)]",,,binding result (hnRNPK full-length [2]): binds
"GCAGCCCCAGCCCCAGCCCCUACCCCUGUUUCUGUUUCUGC (structured_RNA) [(1,2,3,4)]",,,binding result (hnRNPK full-length [2]): binds
GCGCCUCCCGGGUUCAAGCGAUUCUCCUGCCUCAGCCUCCCGA (ssRNA) [Sirloin motif],760 ± 40 nM,690 ± 20 nM,
GUCAUUUUCUCCCUUUCUGUUUUUCUUC (ssRNA) [Rab7],360 ± 80 nM,110 ± 20 nM,
"GCAGCCCCAGUUUCAGCCCCUAUUUCUGUUUCUGUUUCUGC (structured_RNA) [(1,3)]",,,binding result (hnRNPK full-length [3]): no binding
ATATTCCCTC (ssDNA) [M5' ssDNA],,1400 ± 200 nM,Kd (hnRNPK KH3): 8700 ± 1300 nM; Kd (hnRNPK R9 to S9): 3000 ± 100 nM
GCCAACCUCUUCCCAUUUCCCACACUCCAACUCCCU (ssRNA) [Ucp2],87 ± 9 nM,44 ± 3 nM,Kd (hnRNPK KH3): 11100 ± 600 nM
Exon 4 hp (structured_RNA) RNA: GCUGGCGACCUAUUCCCUUUGACGAUCCCUAGGUGGAGAUGGGGCAUGAGGAUCCUCCAGGGGAAUAGCUCACCACC,,,binding result (hnRNPK full-length [1]): no binding
"GCAGCCCCAGUUUCAGUUUUUAUUUCUGUUUCUGCCCCUGC (structured_RNA) [(1,6)]",,,binding result (hnRNPK full-length [3]): no binding
